This experiment addresses androgen receptor ligand binding domain (AR LBD) bound with DHT (chimp construct; LBD sequence stated identical to human). In words: X-ray cocrystal structure; surface area buried from both molecules on binding.
androgen receptor ligand binding domain (AR LBD) bound with DHT (chimp construct; LBD sequence stated identical to human), sequence (P10275 whole entry, the tested form may be a part): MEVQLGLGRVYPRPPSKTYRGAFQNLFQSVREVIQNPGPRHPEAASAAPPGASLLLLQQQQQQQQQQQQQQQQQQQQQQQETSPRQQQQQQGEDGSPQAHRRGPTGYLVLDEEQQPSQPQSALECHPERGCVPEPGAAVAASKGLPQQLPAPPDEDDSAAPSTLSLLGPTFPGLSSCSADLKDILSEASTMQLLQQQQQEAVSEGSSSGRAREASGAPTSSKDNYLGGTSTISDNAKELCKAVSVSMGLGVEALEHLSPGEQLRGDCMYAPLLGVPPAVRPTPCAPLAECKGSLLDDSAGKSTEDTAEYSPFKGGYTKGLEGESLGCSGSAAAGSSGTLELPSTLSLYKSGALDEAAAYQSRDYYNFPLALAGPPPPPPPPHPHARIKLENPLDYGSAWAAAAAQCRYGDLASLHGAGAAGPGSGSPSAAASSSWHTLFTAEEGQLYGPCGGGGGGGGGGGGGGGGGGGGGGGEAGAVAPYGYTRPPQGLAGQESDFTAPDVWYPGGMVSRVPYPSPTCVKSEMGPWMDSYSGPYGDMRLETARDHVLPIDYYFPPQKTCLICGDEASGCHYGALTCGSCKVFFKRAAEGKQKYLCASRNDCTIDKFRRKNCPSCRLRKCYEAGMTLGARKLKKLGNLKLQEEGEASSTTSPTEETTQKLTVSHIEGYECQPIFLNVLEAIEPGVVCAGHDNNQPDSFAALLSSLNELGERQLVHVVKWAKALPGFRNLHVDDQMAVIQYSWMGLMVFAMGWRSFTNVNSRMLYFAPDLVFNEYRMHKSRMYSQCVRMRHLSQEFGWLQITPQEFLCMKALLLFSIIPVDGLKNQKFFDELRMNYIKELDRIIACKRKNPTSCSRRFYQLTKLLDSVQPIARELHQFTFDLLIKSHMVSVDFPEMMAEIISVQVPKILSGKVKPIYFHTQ
Molecule SRWQALFDDGTDTSR [coactivator-related peptide CRP-2] displayed a buried surface area of 963 Å^2. SSNTPRFKEYFMQSR [coactivator-related peptide CRP-6] returned a buried surface area of 1230 Å^2. The molecule SRFADFFRNEGLSGSR [coactivator-related peptide CRP-5] had a buried surface area of 920 Å^2. On to SSRGLLWDLLTKDSR [coactivator-related peptide CRP-1], for which the buried surface area was determined as 987 A^2.

The molecule SSKFAALWDPPKLSR [coactivator-related peptide CRP-4] yielded a buried surface area of 930 Å^2. In turn, SRWAEVWDDNSKVSR [coactivator-related peptide CRP-7] came in with a buried surface area of 882 Å^2. In the case of SSRFESLFAGEKESR [coactivator-related peptide CRP-3], the buried surface area was 1020 A^2.

(Values after patent US20050202440A1.)
